Source: US7304127

target: HIV-1LAI envelope gp120 labeled with radioactive iodine (HIV-1 LAI), P03377; assay: 125I-gp120, peptide array

Binder | counts minus background (counts per 20 min)
MLVILILINCKRLKSMTD (modifications not checked) [CCR5 49-66] | 84
ILPGIVILSCYCIIISKL (modifications not checked) [CXCR4 209-226] | 192
MDYQVSSPIYDINYYTSE (modifications not checked) [CCR5 1-18] | 735
IVILSCYCIIISKLSHSK (modifications not checked) [CXCR4 213-230] | 277
DLWVVVFQFQHIMVGLIL (modifications not checked) [CXCR4 193-210] | 422
ILLEIIKQGCEFENTVHK (modifications not checked) [CXCR4 265-282] | 117
IIKQGCEFENTVHKWISI (modifications not checked) [CXCR4 269-286] | 106
IDSFILLEIIKQGCEFEN (modifications not checked) [CXCR4 261-278] | 3470
IGISIDSFILLEIIKQGC (modifications not checked) [CXCR4 257-274] | 734
LPYYIGISIDSFILLEII (modifications not checked) [CXCR4 253-270] | 439
CKAVHVIYTVNLYSSVLI (modifications not checked) [CXCR4 109-126] | 243
EKVVYVGVWIPALLLTIP (modifications not checked) [CXCR4 153-170] | 147
TVILILAFFACWLPYYIG (modifications not checked) [CXCR4 241-258] | 323
SCYCIIISKLSHSKGHQK (modifications not checked) [CXCR4 217-234] | 259
LLLTIPDFIFANVSEADD (modifications not checked) [CXCR4 165-182] | 1010
ICDRFYPNDLWVVVFQFQ (modifications not checked) [CXCR4 185-202] | 306
SKGHQKRKALKTTVILIL (modifications not checked) [CXCR4 229-246] | 140
DAVANWYFGNFLCKAVHV (modifications not checked) [CXCR4 97-114] | 112
VVFQFQHIMVGLILPGIV (modifications not checked) [CXCR4 197-214] | 589
LLFVITLPFWAVDAVANW (modifications not checked) [CXCR4 85-102] | 63
YVGVWIPALLLTIPDFIF (modifications not checked) [CXCR4 157-174] | 124
ALKTTVILILAFFACWLP (modifications not checked) [CXCR4 237-254] | 261

Binder | counts minus background (counts per 20 min)
FYPNDLWVVVFQFQHIMV (modifications not checked) [CXCR4 189-206] | 416
YQKKLRSMTDKYRLHLSV (modifications not checked) [CXCR4 65-82] | 99
LVMGYQKKLRSMTDKYRL (modifications not checked) [CXCR4 61-78] | 105
TDKYRLHLSVADLLFVIT (modifications not checked) [CXCR4 73-90] | 92
ITLPFWAVDAVANWYFGN (modifications not checked) [CXCR4 89-106] | 130
KLSHSKGHQKRKALKTTV (modifications not checked) [CXCR4 225-242] | 130
RLHLSVADLLFVITLPFW (modifications not checked) [CXCR4 77-94] | 136
DRYLAIVHATNSQRPRKL (modifications not checked) [CXCR4 133-150] | 168
LILINCKRLKSMTDIYLL (modifications not checked) [CCR5 53-70] | 2
WIPALLLTIPDFIFANVS (modifications not checked) [CXCR4 161-178] | 182
LRSMTDKYRLHLSVADLL (modifications not checked) [CXCR4 69-86] | 160
NWYFGNFLCKAVHVIYTV (modifications not checked) [CXCR4 101-118] | 96
AIVHATNSQRPRKLLAEK (modifications not checked) [CXCR4 137-154] | 73
QKRKALKTTVILILAFFA (modifications not checked) [CXCR4 233-250] | 283
FIFGFVGNMLVILILINC (modifications not checked) [CCR5 41-58] | 343
KLLAEKVVYVGVWIPALL (modifications not checked) [CXCR4 149-166] | 89
SVADLLFVITLPFWAVDA (modifications not checked) [CXCR4 81-98] | 253
ILAFFACWLPYYIGISID (modifications not checked) [CXCR4 245-262] | 184
FQHIMVGLILPGIVILSC (modifications not checked) [CXCR4 201-218] | 170
IPDFIFANVSEADDRYIC (modifications not checked) [CXCR4 169-186] | 438
GLVILVMGYQKKLRSMTD (modifications not checked) [CXCR4 57-74] | 157
LILAFISLDRYLAIVHAT (modifications not checked) [CXCR4 125-142] | 107

Binder | counts minus background (counts per 20 min)
FVGNMLVILILINCKRLK (modifications not checked) [CCR5 45-62] | 62
YSLVFIFGFVGNMLVILI (modifications not checked) [CCR5 37-54] | 347
SITEALAFFHCCLNPILY (modifications not checked) [CXCR4 285-302] | 188
YSSVLILAFISLDRYLAI (modifications not checked) [CXCR4 121-138] | 157
DDRYICDRFYPNDLWVVV (modifications not checked) [CXCR4 181-198] | 125
ATNSQRPRKLLAEKVVYV (modifications not checked) [CXCR4 141-158] | 78
GCEFENTVHKWISITEAL (modifications not checked) [CXCR4 273-290] | 264
HKWISITEALAFFHCCLN (modifications not checked) [CXCR4 281-298] | 163
QRPRKLLAEKVVYVGVWI (modifications not checked) [CXCR4 145-162] | 127
FISLDRYLAIVHATNSQR (modifications not checked) [CXCR4 129-146] | 91
FACWLPYYIGISIDSFIL (modifications not checked) [CXCR4 249-266] | 202
IIISKLSHSKGHQKRKAL (modifications not checked) [CXCR4 221-238] | 157
VSEADDRYICDRFYPNDL (modifications not checked) [CXCR4 177-194] | 157
HVIYTVNLYSSVLILAFI (modifications not checked) [CXCR4 113-130] | 118
MVGLILPGIVILSCYCII (modifications not checked) [CXCR4 205-222] | 167
ENTVHKWISITEALAFFH (modifications not checked) [CXCR4 277-294] | 315
NCKRLKSMTDIYLLNLAI (modifications not checked) [CCR5 57-74] | 25
FWAVDAVANWYFGNFLCK (modifications not checked) [CXCR4 93-110] | 66
TVNLYSSVLILAFISLDR (modifications not checked) [CXCR4 117-134] | 242
GNFLCKAVHVIYTVNLYS (modifications not checked) [CXCR4 105-122] | 231
IFANVSEADDRYICDRFY (modifications not checked) [CXCR4 173-190] | 267
